Results from patent publication KR20140009174A (dated 2014).
Substitutions are numbered along the chain they refer to. Names and notes keep the numbering of the source.

B1: 항-CXCR4 키메라 Mab c515H7 (antibody, human IgG1, kappa, V domains shown)
VH: EVNLVESGGGLVQPGGSLRLSCATSGFTFTDNYMSWVRQPPGKALEWLGFIRNKANGYTTDYSASVRGRFTISRDNSQSILYLQMNALRAEDSATYYCARDVGSNYFDYWGQGTTLTVSS
VL: DIVMSQSPSSLAVSAGEKVTMSCKSSQSLFNSRTRKNYLAWYQQKPGQSPKLLIYWASARDSGVPARFTGSGSETYFTLTISRVQAEDLAVYYCMQSFNLRTFGQGTKVEIKR
B2: hz515H7 VH1 D76N VL2.1 (antibody, V domains shown)
VH: EVQLVESGGGLVQPGRSLRLSCTASGFTFTDNYMSWVRQAPGKGLEWVGFIRNKANGYTTEYAASVKGRFTISRDNSKSIAYLQMNSLKTEDTAVYYCARDVGSNYFDYWGQGTLVTVSS
VL: B1 VL with S5T, S9D, A15L, K18R, V19A, S49P, A66D, T69S
B3: hz515H7 VH1 D76N VL2 (antibody, V domains shown)
VH: B2 VH
VL: B1 VL with S5T, A15L, K18R, V19A
notes: also called hz515H7 VH1 D76N-VL2 Mab; 인간화 515H7 Mab
B4: hz515H7 VH1 D76N VL2.2 (antibody, V domains shown)
VH: B2 VH
VL: B1 VL with S5T, S9D, A15L, K18R, V19A, S49P, A66D, L89V
B5: hz515H7 VH1 D76N VL2.3 (antibody, V domains shown)
VH: B2 VH
VL: B1 VL with S5T, S9D, A15L, K18R, V19A, S49P, A66D, R83S, V84L
B6: 항-CXCR4 Mab 515H7 (마우스 모노클론 항체) (antibody, V domains shown)
VH: B1 VH
VL: DIVMSQSPSSLAVSAGEKVTMSCKSSQSLFNSRTRKNYLAWYQQKPGQSPKLLIYWASARDSGVPARFTGSGSETYFTLTISRVQAEDLAVYYCMQSFNLRTFGGGTKLEIK
B7: 항-CXCR4 Mab 301aE5 (마우스 모노클론 항체) (antibody, V domains shown)
VH: QVQLKESGPGLVAPSQSLSITCTVSGFSLTDYGVYWVRQPPGKGLEWLGMIWGDGTTDYNSALKSRLSISKDNSKSQVFLKMNTLQTDDTARYYCARGRQFGFDYWGQGTTLTVSS
VL: B6 VL with S22R, Y55F, A59I, D61E, A66D, E74G, Y76D, R83S, M95K, F98Y
B8: 515H7 인간화 VH 변형체 1 (VH1) + 마우스/키메라 VL (cVL) (antibody, human IgG1, kappa)
heavy: not shown
light: DIVMSQSPSSLAVSAGEKVTMSCKSSQSLFNSRTRKNYLAWYQQKPGQSPKLLIYWASARDSGVPARFTGSGSETYFTLTISRVQAEDLAVYYCMQSFNLRTFGQGTKVEIKRTVAAPSVFIFPPSDEQLKSGTASVVCLLNNFYPREAKVQWKVDNALQSGNSQESVTEQDSKDSTYSLSSTLTLSKADYEKHKVYACEVTHQGLSSPVTKSFNRGEC
notes: also called VH1 cVL; VH 변형체 1 (VH1) 마우스 VL 조합
B9: hz515H7 VH1 VL2 (VH 변형체 1 + VL 변형체 2) (antibody, human IgG1, kappa)
heavy: not shown
light: B8 light with S5T, A15L, K18R, V19A

Experiments:
[1] = biological target: CXCR4/Rluc + CXCR4/YFP (HEK293 세포의 CXCR4 동종이량체 BRET 파트너) (human; Renilla reniformis); test: cell-based or functional assay
[2] = biological target: T1, 인간 CXCR4 (케모카인 (C-X-C 모티브) 수용체 4) (human, UniProt P61073 1-352); test: cell-based or functional assay
[3] = biological target: T1, 인간 CXCR4 (케모카인 (C-X-C 모티브) 수용체 4); test: FACS on NIH3T3-CXCR4 cells (legend of Fig. 21)
[4] = biological target: T1, 인간 CXCR4 (케모카인 (C-X-C 모티브) 수용체 4); test: competition flow cytometry on NIH3T3-CXCR4 cells; competitor biotinylated mouse 515H7
[5] = biological target: T1, 인간 CXCR4 (케모카인 (C-X-C 모티브) 수용체 4); test: competition flow cytometry on NIH3T3-CXCR4 cells; competitor biotinylated mouse 515H7 (legend of Fig. 19)

T1 sequence (P61073 whole entry): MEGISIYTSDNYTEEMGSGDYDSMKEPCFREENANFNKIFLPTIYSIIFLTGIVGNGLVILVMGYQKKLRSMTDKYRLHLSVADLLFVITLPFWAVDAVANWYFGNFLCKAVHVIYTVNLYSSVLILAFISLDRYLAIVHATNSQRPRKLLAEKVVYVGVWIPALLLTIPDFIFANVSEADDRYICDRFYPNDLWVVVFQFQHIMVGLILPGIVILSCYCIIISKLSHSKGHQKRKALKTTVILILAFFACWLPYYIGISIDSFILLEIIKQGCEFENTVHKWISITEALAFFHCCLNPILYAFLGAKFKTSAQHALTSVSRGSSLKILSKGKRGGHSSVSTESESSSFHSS
Sequence of CXCR4/Rluc + CXCR4/YFP (HEK293 세포의 CXCR4 동종이량체 BRET 파트너) (human; Renilla reniformis) (chain, as listed by the source, chain 1 of 2): as the sequence (P61073 whole entry) above
Sequence of CXCR4/Rluc + CXCR4/YFP (HEK293 세포의 CXCR4 동종이량체 BRET 파트너) (human; Renilla reniformis) (chain, as listed by the source, chain 2 of 2): as the sequence (P61073 whole entry) above

Binder | SDF-1-유도성 BRET 증가의 저해 [1] [%] | binding result [3] | SDF-1-유도성 BRET 증가의 저해 백분율 [1] [%] | other results
B1 | 96 |  |  | IC50, 89.6 복제 저해, 마라비록 2 μg/ml 첨가 시 [2]: 0.2 µg/mL; IC50, 인간 PBMC에서 이중 친화성 X4R5 바이러스 89.6 복제 저해 (다수 회차 검정법) [2]: 2 µg/mL
B2 |  | binds | 65 | 
B3 |  | binds | ~88 | 
B4 |  | binds | 33 | 
B5 |  | binds | 21 | 
B6 | 69 |  |  | 
B7 | 69 |  |  | 
B8 |  |  |  | binding result [4]: binds
B9 |  |  |  | binding result [5]: binds
